Data taken from the supplement of paper PMC6757056.
± gives the standard deviation of the averaged measurements.

B1: library; a variant is named by its letters at N, in order (parent)
chain: GCUGUCACCGAGAAACUGUGAAGUAUAUCUUAAACCUGGGCACUUAAAAGAUAUAUGGAGUUAGUAGUGCAACCUGCUCGGUCUGAUGAGUCCNNNNNNGGACGAAACAGC

Legend:
cyclic di-GMP [1] = variants of: B1; test: normalized RNA/DNA level without ligand (relative to sTRSVctl = 100) (log10 (% of sTRSVctl)); HEK293T; ligand: cyclic di-GMP (c-di-GMP-II aptamer); higher = less ribozyme self-cleavage, higher mRNA level; conditions: reporter: mCherry (pCS4076), ligand present: no
Summary of the method: (§1)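 Ribozyme switch library plasmids with mCherry reporters (eGFP in certain ligand experiments) went into HEK293T cells at 4 µg per 6-well well. Where ligand was used, it was applied 1 h before transfection, and total RNA was extracted with EDTA 72 h later for reverse transcription, amplification, barcoding and sequencing. RNA level is the RNA-to-DNA read ratio normalized to a spiked-in non-cleaving sequence or to the leading sequences, then scaled and log-transformed. Scaling was ×100 with log10, the leading set comprised 25 sequences, and the cutoff was ≥100 DNA reads.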

cyclic di-GMP [2] = variants of: B1; test: normalized RNA/DNA level with ligand (relative to sTRSVctl = 100) (log10 (% of sTRSVctl)); HEK293T; ligand: cyclic di-GMP (c-di-GMP-II aptamer); ligand concentration (+) RNA-Seq: 1 mM; higher = less ribozyme self-cleavage, higher mRNA level; conditions: reporter: mCherry (pCS4076), ligand present: yes
Summary of the method: as §1

Variant	normalized RNA/DNA level without ligand (log10) (cyclic di-GMP [1])	normalized RNA/DNA level with ligand (log10) (cyclic di-GMP [2])
CGACAG	1.8 ± 0.023	1.87 ± 0.091
CGACAC	1.594 ± 0.0068	1.76 ± 0.11
CGACAU	1.43 ± 0.16	1.63 ± 0.12
CGAAUC	1.6 ± 0.043	1.78 ± 0.11
CGAAUG	1.66 ± 0.019	1.85 ± 0.047
CCUGCG	1.8 ± 0.026	1.88 ± 0.13
CCUGCA	1.67 ± 0.056	1.84 ± 0.058
CCUGCU	1.698 ± 0.0032	1.84 ± 0.1
ACUUUG	1.59 ± 0.037	1.76 ± 0.12
ACUUUC	1.73 ± 0.042	1.85 ± 0.13
CCUGGU	1.672 ± 0.0096	1.83 ± 0.13
CCUGGA	1.56 ± 0.052	1.76 ± 0.069
CCUGGG	1.72 ± 0.018	1.82 ± 0.18
UCUUCU	1.76 ± 0.066	1.84 ± 0.11
UCUUCA	1.75 ± 0.057	1.8 ± 0.1
UCUUCG	1.79 ± 0.055	1.89 ± 0.12
UCUUCC	1.79 ± 0.059	1.92 ± 0.13
UCUUUU	1.744 ± 0.012	1.84 ± 0.073
UCUUUG	1.731 ± 0.0025	1.89 ± 0.069
UCUUUC	1.755 ± 0.014	1.86 ± 0.089
UCUUUA	1.65 ± 0.031	1.84 ± 0.11
GGAAAC	1.74 ± 0.088	1.83 ± 0.19
GGAAAA	1.3 ± 0.025	1.49 ± 0.12

Variant	normalized RNA/DNA level without ligand (log10) (cyclic di-GMP [1])	normalized RNA/DNA level with ligand (log10) (cyclic di-GMP [2])
GCUGAG	1.5 ± 0.079	1.67 ± 0.069
GCUGAC	1.47 ± 0.069	1.67 ± 0.1
GCUGAU	1.55 ± 0.061	1.72 ± 0.087
GCUGUC	1.43 ± 0.14	1.72 ± 0.024
CGAGCU	1.82 ± 0.022	1.88 ± 0.077
CGAGCC	1.824 ± 0.0092	1.88 ± 0.083
CGAGCA	1.83 ± 0.067	1.89 ± 0.12
GGAACC	1.74 ± 0.039	1.86 ± 0.14
UGACCA	1.7585 ± 0.0012	1.88 ± 0.074
UGACCC	1.798 ± 0.013	1.89 ± 0.087
UGACCU	1.72 ± 0.016	1.87 ± 0.087
GCUUUG	1.66 ± 0.03	1.83 ± 0.13
GCUUUU	1.67 ± 0.03	1.8 ± 0.11
GCUUUC	1.58 ± 0.022	1.75 ± 0.11
GCUUUA	1.63 ± 0.023	1.83 ± 0.1
CGAGAC	1.643 ± 0.0051	1.77 ± 0.16
CGAGAG	1.72 ± 0.022	1.84 ± 0.033
UCUGUG	1.73 ± 0.051	1.91 ± 0.092
UCUGUC	1.75 ± 0.035	1.87 ± 0.1
UCUGUU	1.636 ± 0.0046	1.82 ± 0.12
CGACUU	1.44 ± 0.089	1.63 ± 0.12
CGACUC	1.72 ± 0.03	1.86 ± 0.14
UGAGCC	1.84 ± 0.02	1.91 ± 0.14

Variant	normalized RNA/DNA level without ligand (log10) (cyclic di-GMP [1])	normalized RNA/DNA level with ligand (log10) (cyclic di-GMP [2])
UGAGCG	1.8 ± 0.12	1.86 ± 0.16
UGAGCA	1.84 ± 0.073	1.91 ± 0.11
UGAGCU	1.76 ± 0.0029	1.87 ± 0.1
UGAGGU	1.61 ± 0.052	1.79 ± 0.12
UGAGGA	1.54 ± 0.091	1.75 ± 0.088
UGAGGG	1.63 ± 0.045	1.79 ± 0.083
UGAGGC	1.74 ± 0.028	1.87 ± 0.12
CGAGGC	1.74 ± 0.027	1.85 ± 0.079
CGAGGU	1.72 ± 0.038	1.84 ± 0.096
CGAGGG	1.617 ± 0.014	1.76 ± 0.036
CGAGGA	1.54 ± 0.027	1.65 ± 0.084
AGAAGU	1.57 ± 0.022	1.75 ± 0.16
AGAAGC	1.56 ± 0.13	1.74 ± 0.077
AGACAU	1.62 ± 0.027	1.79 ± 0.12
AGACAG	1.55 ± 0.049	1.75 ± 0.15
AGACAC	1.68 ± 0.042	1.82 ± 0.1
ACUGAG	1.54 ± 0.11	1.71 ± 0.031
ACUGAC	1.611 ± 0.012	1.77 ± 0.12
UCUCCC	1.81 ± 0.073	1.92 ± 0.14
UCUCCU	1.77 ± 0.003	1.91 ± 0.14
UCUCCG	1.839 ± 0.0029	1.94 ± 0.099
AGAAAU	1.71 ± 0.03	1.83 ± 0.058
CGAAGC	1.7 ± 0.06	1.81 ± 0.054

Variant	normalized RNA/DNA level without ligand (log10) (cyclic di-GMP [1])	normalized RNA/DNA level with ligand (log10) (cyclic di-GMP [2])
CGAAGG	1.634 ± 0.0028	1.82 ± 0.097
CGAAGU	1.676 ± 0.0054	1.84 ± 0.16
GGAGAC	1.72 ± 0.035	1.85 ± 0.059
ACUUAU	1.55 ± 0.042	1.73 ± 0.074
ACUUAA	1.49 ± 0.085	1.68 ± 0.13
ACUUAC	1.7124 ± 0.0011	1.84 ± 0.096
GGAAUC	1.55 ± 0.016	1.76 ± 0.09
UGAAUU	1.683 ± 0.0066	1.84 ± 0.13
UGAAUG	1.72 ± 0.037	1.86 ± 0.12
UGAAUA	1.677 ± 0.0075	1.82 ± 0.096
UCUCUU	1.74 ± 0.039	1.86 ± 0.089
UCUCUC	1.81 ± 0.069	1.9 ± 0.12
UCUCUG	1.718 ± 0.015	1.87 ± 0.14
UCUCUA	1.666 ± 0.0017	1.82 ± 0.12
ACUGCG	1.73 ± 0.069	1.83 ± 0.069
ACUGCC	1.744 ± 0.016	1.88 ± 0.12
ACUGCA	1.64 ± 0.023	1.77 ± 0.1
GGAGCC	1.85 ± 0.011	1.9 ± 0.1
CGACGU	1.66 ± 0.034	1.84 ± 0.048
CGACGC	1.74 ± 0.04	1.82 ± 0.12
CGACGG	1.667 ± 0.013	1.8 ± 0.16
CGACCA	1.667 ± 0.013	1.77 ± 0.12
CGACCC	1.753 ± 0.014	1.88 ± 0.1

Variant	normalized RNA/DNA level without ligand (log10) (cyclic di-GMP [1])	normalized RNA/DNA level with ligand (log10) (cyclic di-GMP [2])
CGACCU	1.54 ± 0.028	1.71 ± 0.09
UCUGGG	1.74 ± 0.026	1.88 ± 0.059
UCUGGA	1.58 ± 0.054	1.79 ± 0.1
UCUGGC	1.78 ± 0.025	1.88 ± 0.068
UCUCGA	1.8 ± 0.036	1.86 ± 0.15
UCUCGU	1.69 ± 0.037	1.85 ± 0.075
UCUCGG	1.9 ± 0.063	1.96 ± 0.13
UCUCGC	1.808 ± 0.017	1.88 ± 0.098
CCUUUC	1.7 ± 0.021	1.85 ± 0.098
CCUUUU	1.59 ± 0.065	1.77 ± 0.073
CCUUUG	1.59 ± 0.078	1.77 ± 0.053
ACUCGA	1.52 ± 0.065	1.73 ± 0.11
ACUCGU	1.76 ± 0.043	1.85 ± 0.021
ACUCGG	1.72 ± 0.074	1.76 ± 0.2
ACUCGC	1.73 ± 0.027	1.88 ± 0.15
GCUGGC	1.57 ± 0.052	1.71 ± 0.14
GCUGGG	1.56 ± 0.029	1.71 ± 0.15
GCUCCG	1.79 ± 0.028	1.92 ± 0.13
GCUCCC	1.71 ± 0.052	1.83 ± 0.17
GCUCCU	1.71 ± 0.0058	1.85 ± 0.081
GCUCGA	1.57 ± 0.04	1.73 ± 0.099
GCUCGC	1.82 ± 0.042	1.87 ± 0.097
GCUCGG	1.78 ± 0.018	1.88 ± 0.052
